Key:
[1] = target: Human recombinant CD13 (human) (UniProt P15144); assay: SPR; Biacore 3000; human recombinant CD13 amine-coupled to a CM5 chip (11,949 RU, 10 mM sodium acetate pH 5.0); analytes in HBS-EP (10 mM HEPES pH 7.4, 150 mM NaCl, 3 mM EDTA, 0.005% P20), 5 µl/min, 5 min injection, 8 min dissociation; 14-3-3ε 10 µM, antibodies 1 µg/ml; kinetics with 0, 5, 7.5, 10, 15, 20 µM 14-3-3ε; blank surface subtracted
[2] = target: Human recombinant CD13 (human) (UniProt P15144)
[3] = target: T1, CD13 on the surface of mouse articular chondrocytes (mouse (endogenous in primary articular chondrocytes)) (UniProt P97449)
T1 sequence: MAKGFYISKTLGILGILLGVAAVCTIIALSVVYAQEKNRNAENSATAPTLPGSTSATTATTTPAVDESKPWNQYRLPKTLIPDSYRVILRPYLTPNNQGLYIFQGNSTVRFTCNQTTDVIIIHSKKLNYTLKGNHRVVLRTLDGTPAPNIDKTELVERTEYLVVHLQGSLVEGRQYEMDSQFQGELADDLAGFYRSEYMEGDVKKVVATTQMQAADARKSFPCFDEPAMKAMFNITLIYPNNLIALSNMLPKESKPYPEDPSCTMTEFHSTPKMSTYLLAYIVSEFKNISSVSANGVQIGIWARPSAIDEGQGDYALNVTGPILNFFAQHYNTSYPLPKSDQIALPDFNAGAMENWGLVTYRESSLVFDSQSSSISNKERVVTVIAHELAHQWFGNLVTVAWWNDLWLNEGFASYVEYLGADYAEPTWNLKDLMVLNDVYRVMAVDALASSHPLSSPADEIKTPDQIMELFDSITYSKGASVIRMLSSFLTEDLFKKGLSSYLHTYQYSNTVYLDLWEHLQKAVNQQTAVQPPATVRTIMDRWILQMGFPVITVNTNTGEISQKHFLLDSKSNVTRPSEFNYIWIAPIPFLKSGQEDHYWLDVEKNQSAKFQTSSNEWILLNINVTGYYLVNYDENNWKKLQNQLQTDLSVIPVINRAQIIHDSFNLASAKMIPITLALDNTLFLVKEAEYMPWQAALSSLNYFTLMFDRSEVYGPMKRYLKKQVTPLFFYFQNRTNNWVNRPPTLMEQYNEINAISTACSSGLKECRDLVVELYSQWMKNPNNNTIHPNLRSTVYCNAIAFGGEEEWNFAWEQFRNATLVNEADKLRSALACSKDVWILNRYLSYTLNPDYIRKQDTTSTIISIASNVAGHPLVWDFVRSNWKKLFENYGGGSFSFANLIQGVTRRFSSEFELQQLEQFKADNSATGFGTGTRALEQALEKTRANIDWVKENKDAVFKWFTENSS

[4] = target: T1, CD13 on the surface of mouse articular chondrocytes (mouse (endogenous in primary articular chondrocytes)); remark: listed apart in the source

Sequence of UniProt P15144 (P15144 whole entry): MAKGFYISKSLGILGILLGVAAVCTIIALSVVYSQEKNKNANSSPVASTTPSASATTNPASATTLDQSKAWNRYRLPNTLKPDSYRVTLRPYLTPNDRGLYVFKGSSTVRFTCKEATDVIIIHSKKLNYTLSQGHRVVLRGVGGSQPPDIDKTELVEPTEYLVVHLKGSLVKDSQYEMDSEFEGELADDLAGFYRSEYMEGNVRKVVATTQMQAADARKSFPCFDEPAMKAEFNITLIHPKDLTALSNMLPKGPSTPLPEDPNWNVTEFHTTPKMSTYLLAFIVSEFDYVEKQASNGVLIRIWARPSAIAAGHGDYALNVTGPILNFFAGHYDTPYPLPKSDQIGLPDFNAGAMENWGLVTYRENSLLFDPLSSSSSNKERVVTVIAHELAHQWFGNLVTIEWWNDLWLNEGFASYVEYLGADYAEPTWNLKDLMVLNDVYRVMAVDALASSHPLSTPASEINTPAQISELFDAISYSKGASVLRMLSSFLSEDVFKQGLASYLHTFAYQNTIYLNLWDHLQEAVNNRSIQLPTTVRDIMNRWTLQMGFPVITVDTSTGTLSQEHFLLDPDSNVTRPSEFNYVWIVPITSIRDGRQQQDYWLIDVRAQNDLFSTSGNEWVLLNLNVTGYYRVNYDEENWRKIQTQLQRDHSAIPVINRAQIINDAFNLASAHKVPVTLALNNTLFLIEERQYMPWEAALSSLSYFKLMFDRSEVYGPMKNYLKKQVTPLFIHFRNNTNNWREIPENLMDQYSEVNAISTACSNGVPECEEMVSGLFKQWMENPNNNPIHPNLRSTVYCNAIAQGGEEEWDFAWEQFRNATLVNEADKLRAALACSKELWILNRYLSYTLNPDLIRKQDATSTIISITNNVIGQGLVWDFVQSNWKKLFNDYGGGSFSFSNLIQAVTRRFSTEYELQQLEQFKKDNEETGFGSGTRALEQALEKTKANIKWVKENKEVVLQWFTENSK

Recombinant human 14-3-3ε (from UniProt P62258 1-255) (natural protein)
Kd [1]: 2450 nM
response (resonance units) at 10 µM [1]: 78 RU
decrease of 14-3-3ε-induced MMP-3 mRNA expression (qRT-PCR) in human osteoarthritis chondrocytes (endogenous human CD13) by anti-CD13 blocking antibody SJ1D1, 1 µg/ml [2]: 43%
decrease of 14-3-3ε-induced MMP-3 protein release (ELISA) in human osteoarthritis chondrocytes (endogenous human CD13) by anti-CD13 blocking antibody SJ1D1, 1 µg/ml [2]: 59%
decrease of 14-3-3ε (1 µg/ml)-induced MMP-13 mRNA expression (qRT-PCR) in murine chondrocytes by anti-CD13 blocking antibody AB108310, 1 and 5 µg/ml (47% to 88%) [3]: 88%
decrease of 14-3-3ε (1 µg/ml)-induced MMP-13 release (ELISA) in murine chondrocytes by anti-CD13 blocking antibody AB108310, 1 and 5 µg/ml (29% to 32%, P>0.05) [3]: 32%
inhibition of 14-3-3ε (1 µg/ml)-induced MMP-3 mRNA expression (qRT-PCR) in murine chondrocytes by anti-CD13 blocking antibody AB108310, 1 and 5 µg/ml (64% to 90%) [3]: 90%
inhibition of 14-3-3ε (1 µg/ml)-induced MMP-3 protein release (ELISA) in murine chondrocytes by anti-CD13 blocking antibody AB108310, 1 and 5 µg/ml (61% to 87%) [3]: 87%
decrease of 14-3-3ε (1 µg/ml)-induced MMP-13 mRNA synthesis (qRT-PCR) in mouse chondrocytes by the synthetic CD13 peptide EFNpYVW, 0.5 and 5 µg/ml (30% to 56%) [4]: 56%
inhibition of 14-3-3ε (1 µg/ml)-induced MMP-3 mRNA production (qRT-PCR) in mouse chondrocytes by the synthetic CD13 peptide EFNpYVW, 0.5 and 5 µg/ml (48% to 62%) [4]: 62%
